Earlier results on one substance are cited in PMC10213764 (Acta Pharmaceutica Sinica. B, 2023).

Where only a bound is given, the exact number is not on record here.

For this data set the following is noted: continuous agitation, 37 °C.

As to “native insulin: Native insulin was purchased from Life Technologies”, the “time free from aggregation, formulated with CB[7]‒PEG conjugate” value was greater than 100 days.
